Results from US20160272694A1.

Key:
EDI200 (human) [1] = experiment: bridging ECL (biotin-EDI200/SulfoTag-EDI200) in NHP serum; Renzo-1 250 ng/mL
EDI200 (human) [2] = experiment: bridging ECL (biotin-EDI200/SulfoTag-EDI200) in NHP serum; Renzo-1 7.81 ng/mL
EDI200 (human) [3] = experiment: bridging ECL in NHP serum; Renzo-1 250 ng/mL with 1 µg/mL free EDI200 as competitor
EDI200 (human) [4] = experiment: bridging ECL in NHP serum; Renzo-1 250 ng/mL, signal with 1 µg/mL free EDI200 over signal without (Table 17)
EDI200 (human) [5] = experiment: bridging ECL in NHP serum; Renzo-1 125 ng/mL with 1 µg/mL free EDI200 as competitor
EDI200 (human) [6] = experiment: bridging ECL in NHP serum; Renzo-1 15.63 ng/mL, signal with 1 µg/mL free EDI200 over signal without (Table 17)
EDI200 (human) [7] = experiment: bridging ECL (biotin-EDI200/SulfoTag-EDI200) in NHP serum; Renzo-1 62.5 ng/mL
EDI200 (human) [8] = experiment: bridging ECL in NHP serum; Renzo-1 15.63 ng/mL with 1 µg/mL free EDI200 as competitor
EDI200 (human) [9] = experiment: bridging ECL in NHP serum; Renzo-1 62.5 ng/mL, signal with 1 µg/mL free EDI200 over signal without (Table 17)
EDI200 (human) [10] = experiment: bridging ECL in NHP serum; Renzo-1 7.81 ng/mL with 1 µg/mL free EDI200 as competitor
EDI200 (human) [11] = experiment: bridging ECL in NHP serum; Renzo-1 31.25 ng/mL, signal with 1 µg/mL free EDI200 over signal without (Table 17)
EDI200 (human) [12] = experiment: bridging ECL in NHP serum; Renzo-1 7.81 ng/mL, signal with 1 µg/mL free EDI200 over signal without (Table 17)
EDI200 (human) [13] = experiment: bridging ECL in NHP serum; Renzo-1 125 ng/mL, signal with 1 µg/mL free EDI200 over signal without (Table 17)
EDI200 (human) [14] = experiment: bridging ECL (biotin-EDI200/SulfoTag-EDI200) in NHP serum; Renzo-1 125 ng/mL
EDI200 (human) [15] = experiment: bridging ECL in NHP serum; Renzo-1 500 ng/mL, signal with 1 µg/mL free EDI200 over signal without (Table 17)
EDI200 (human) [16] = experiment: bridging ECL (biotin-EDI200/SulfoTag-EDI200) in NHP serum; Renzo-1 31.25 ng/mL
EDI200 (human) [17] = experiment: bridging ECL (biotin-EDI200/SulfoTag-EDI200) in NHP serum; Renzo-1 500 ng/mL; plate NCO 129.4
EDI200 (human) [18] = experiment: bridging ECL in NHP serum; Renzo-1 62.5 ng/mL with 1 µg/mL free EDI200 as competitor
EDI200 (human) [19] = experiment: bridging ECL (biotin-EDI200/SulfoTag-EDI200) in NHP serum; Renzo-1 15.63 ng/mL
EDI200 (human) [20] = experiment: bridging ECL (biotin-EDI200/SulfoTag-EDI200) in NHP serum; plate NCO 129.4
EDI200 (human) [21] = experiment: bridging ECL in NHP serum; Renzo-1 31.25 ng/mL with 1 µg/mL free EDI200 as competitor
EDI200 (human) [22] = experiment: bridging ECL in NHP serum; Renzo-1 500 ng/mL with 1 µg/mL free EDI200 as competitor; plate NCO 129.4

- Mean Signal (EDI200 (human) [1]): 495 signal (ECL)
- Mean Signal (EDI200 (human) [2]): 89 signal (ECL)
- Mean Signal (EDI200 (human) [3]): 89 signal (ECL)
- Drug/Non-drug Ratio (EDI200 (human) [4]): 0.18
- Mean Signal (EDI200 (human) [5]): 85 signal (ECL)
- Drug/Non-drug Ratio (EDI200 (human) [6]): 0.77
- Mean Signal (EDI200 (human) [7]): 176 signal (ECL)
- Mean Signal (EDI200 (human) [8]): 78 signal (ECL)
- Drug/Non-drug Ratio (EDI200 (human) [9]): 0.43
- Mean Signal (EDI200 (human) [10]): 81 signal (ECL)
- Drug/Non-drug Ratio (EDI200 (human) [11]): 0.62
- Drug/Non-drug Ratio (EDI200 (human) [12]): 0.91
- Drug/Non-drug Ratio (EDI200 (human) [13]): 0.28
- Mean Signal (EDI200 (human) [14]): 306 signal (ECL)
- Drug/Non-drug Ratio (EDI200 (human) [15]): 0.18
- Mean Signal (EDI200 (human) [16]): 129 signal (ECL)
- Mean Signal (EDI200 (human) [17]): 949 signal (ECL)
- Mean Signal (EDI200 (human) [18]): 75 signal (ECL)
- Mean Signal (EDI200 (human) [19]): 102 signal (ECL)
- sensitivity (lowest antibody concentration with mean signal above the plate NCO) (EDI200 (human) [20]): 62.5 ng/mL
- Mean Signal (EDI200 (human) [21]): 80 signal (ECL)
- Mean Signal (EDI200 (human) [22]): 171 signal (ECL)
Substance: Mouse monoclonal (Renzo-1) to EDA (antibody)
